Residue numbers refer to the chain shown, from its start.
Key:
Test in all cases: FRET or BRET; Clover fusion protein constant at 50 nM, mRuby2 fusion of antizyme titrated; TBS pH 7.4 + 0.15% Tween-20, 1 hour at room temperature; plate reader, fit of donor quenching
Settings in all cases: both partners purified
[1] = biological target: T1, ODC-Y331S (Clover fusion protein) (human, UniProt P11926 1-461, Y331S)
T1 construct: human ornithine decarboxylase (hODC1) with Y331S; As m5 with the point mutation; source: bacterial expression vector (pBAD), purified recombinant protein
T1 sequence (looked up): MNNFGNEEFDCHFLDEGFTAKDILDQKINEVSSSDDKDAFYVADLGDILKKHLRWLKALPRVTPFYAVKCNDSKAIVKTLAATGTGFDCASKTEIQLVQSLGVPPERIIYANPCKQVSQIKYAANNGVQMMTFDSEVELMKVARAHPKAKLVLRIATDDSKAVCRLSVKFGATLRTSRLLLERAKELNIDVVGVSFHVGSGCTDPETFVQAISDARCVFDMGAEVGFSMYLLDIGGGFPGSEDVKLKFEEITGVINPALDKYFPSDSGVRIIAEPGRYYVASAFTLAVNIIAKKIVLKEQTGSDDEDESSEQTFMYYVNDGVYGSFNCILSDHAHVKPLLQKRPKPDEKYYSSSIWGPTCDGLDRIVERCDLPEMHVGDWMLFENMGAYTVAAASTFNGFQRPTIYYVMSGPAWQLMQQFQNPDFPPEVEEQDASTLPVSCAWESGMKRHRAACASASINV

[2] = biological target: T2, ODC-Clover fusion protein (ornithine decarboxylase), wild type (human, UniProt P11926 1-461)
T2 construct: human ornithine decarboxylase (hODC1); The legend says 'ODC-Clover fusion proteins'; the methods speak of N-terminal fluorescent fusion proteins of hODC1, so Clover is probably N-terminal; also called hODC1; source: bacterial expression vector (pBAD), purified recombinant protein
T2 sequence (looked up): T1 sequence (looked up) with S331Y

[3] = biological target: T3, Clover-AZIN (antizyme inhibitor with an N-terminal Clover tag) (human, UniProt O14977 1-448)
T3 construct: The vector has a TEV protease site after the His tag; also called hAZIN1; source: bacterial expression vector (pBAD), purified recombinant protein; not shown: Clover, N-terminal, kept
T3 sequence (looked up): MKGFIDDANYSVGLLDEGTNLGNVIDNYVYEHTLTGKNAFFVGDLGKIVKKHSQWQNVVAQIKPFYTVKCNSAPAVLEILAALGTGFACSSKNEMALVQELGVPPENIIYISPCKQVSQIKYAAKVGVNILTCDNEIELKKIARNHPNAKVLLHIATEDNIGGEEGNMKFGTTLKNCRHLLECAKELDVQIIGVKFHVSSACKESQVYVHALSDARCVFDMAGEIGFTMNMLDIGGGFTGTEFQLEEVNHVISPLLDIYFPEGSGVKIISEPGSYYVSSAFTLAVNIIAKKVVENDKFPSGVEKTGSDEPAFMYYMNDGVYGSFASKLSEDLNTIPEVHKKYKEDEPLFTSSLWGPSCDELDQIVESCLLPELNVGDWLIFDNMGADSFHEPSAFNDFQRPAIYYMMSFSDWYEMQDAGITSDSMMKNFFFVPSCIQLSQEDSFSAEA

[4] = biological target: T4, ODC-N327A (Clover fusion protein) (human, UniProt P11926 1-461, N327A)
T4 construct: human ornithine decarboxylase (hODC1) with N327A; As m5 with the point mutation; source: bacterial expression vector (pBAD), purified recombinant protein
T4 sequence (looked up): T1 sequence (looked up) with N327A, S331Y

B1: antizyme-mRuby2 (antizyme with a C-terminal mRuby2 tag) (natural protein)
chain: not shown
notes: human antizyme 1 (OAZ1), codon-optimized synthetic gene; An HRV 3C protease site lies between antizyme and mRuby2 (used for the cleavage control); also called AZ-mRuby2; AZ; source: bacterial expression vector (pBAD), gene codon optimized for E. coli, purified recombinant protein; not shown: mRuby2, C-terminal, kept
- Kd [1]: 277 nM
- Kd [2]: 508 nM
- Kd [3]: 22 nM
- Kd [4]: 192 nM
